In patent US20200299400A1 (published 2020):

T1: human CD73 on human cell lines (human, UniProt P21589 27-549)
T1 sequence (looked up): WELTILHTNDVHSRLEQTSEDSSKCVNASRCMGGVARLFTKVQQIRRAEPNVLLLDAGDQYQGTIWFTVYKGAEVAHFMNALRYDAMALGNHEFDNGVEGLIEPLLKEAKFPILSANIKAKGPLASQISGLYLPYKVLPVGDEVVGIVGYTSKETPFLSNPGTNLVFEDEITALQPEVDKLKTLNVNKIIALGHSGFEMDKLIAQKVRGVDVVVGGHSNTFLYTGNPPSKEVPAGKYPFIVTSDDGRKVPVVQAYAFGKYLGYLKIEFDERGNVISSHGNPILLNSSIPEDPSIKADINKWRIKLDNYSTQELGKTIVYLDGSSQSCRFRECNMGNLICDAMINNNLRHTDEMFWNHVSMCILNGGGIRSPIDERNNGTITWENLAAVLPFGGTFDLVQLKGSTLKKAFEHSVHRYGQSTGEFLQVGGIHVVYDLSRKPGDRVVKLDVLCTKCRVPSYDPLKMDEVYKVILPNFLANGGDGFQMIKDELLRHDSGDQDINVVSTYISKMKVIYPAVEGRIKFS

B1: CD73.3-IgG1.1 (antibody, V domains shown)
VH: EVQLVESGGGLVQPGRSLRLSCAASGFTFDDYAMHWVRQAPGKGLEWVSGISWKSGSIGYADSVKGRFTISRDNAKNSLYLQMNSLRAEDTVLYYCVKGYYVILTGLDYWGQGTLVTVSS
VL: not shown
B2: 3h56-269-IgG1.3f (Fc fusion)
chain: EVQLLESGGGLVQPGGSLRLSCAASGFTFRDYEMWWVRQAPGKGLERVSAINPQGTRTYYADSVKGRFTISRDNSKNTLYLQMNSLRAEDTAVYYCAKLPFRFSDRGQGTLVTVSSASTEPKSCDKTHTCPPCPAPEAEGAPSVFLFPPKPKDTLMISRTPEVTCVVVDVSHEDPEVKFNWYVDGVEVHNAKTKPREEQYNSTYRVVSVLTVLHQDWLNGKEYKCKVSNKALPAPIEKTISKAKGQPREPQVYTLPPSREEMTKNQVSLTCLVKGFYPSDIAVEWESNGQPENNYKTTPPVLDSDGSFFLYSKLTVDKSRWQQGNVFSCSVMHEALHNHYTQKSLSLSPGK
B3: 3h56-269-IgG1.1f (Fc fusion)
chain: EVQLLESGGGLVQPGGSLRLSCAASGFTFRDYEMWWVRQAPGKGLERVSAINPQGTRTYYADSVKGRFTISRDNSKNTLYLQMNSLRAEDTAVYYCAKLPFRFSDRGQGTLVTVSSASTEPKSCDKTHTCPPCPAPEAEGAPSVFLFPPKPKDTLMISRTPEVTCVVVDVSHEDPEVKFNWYVDGVEVHNAKTKPREEQYNSTYRVVSVLTVLHQDWLNGKEYKCKVSNKALPSSIEKTISKAKGQPREPQVYTLPPSREEMTKNQVSLTCLVKGFYPSDIAVEWESNGQPENNYKTTPPVLDSDGSFFLYSKLTVDKSRWQQGNVFSCSVMHEALHNHYTQKSLSLSPGK

Columns and labels:
[1] = biological target: T1, human CD73 on human cell lines; experiment: cell-based or functional assay
hCD40-Fc = biological target: T2, hCD40-Fc (human, UniProt P25942 21-193); experiment: SPR; dAb-Fc analyte on immobilized hCD40-Fc; avidity-influenced KDapparent
T2 construct: Immobilized on the sensor chip; construct not described; not shown: Fc part of hCD40-Fc not described
T2 sequence (P25942 21-193): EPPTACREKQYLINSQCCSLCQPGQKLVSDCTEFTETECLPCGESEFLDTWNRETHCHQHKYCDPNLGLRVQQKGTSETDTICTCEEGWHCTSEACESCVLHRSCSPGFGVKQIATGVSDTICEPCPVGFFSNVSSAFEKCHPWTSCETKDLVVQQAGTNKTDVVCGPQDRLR

| Binder | % internalization, H2228 [1] | Kd (hCD40-Fc) |
| --- | --- | --- |
| B1 | 47% | – |
| B2 | – | < 1 nM |
| B3 | – | < 1 nM |
